Measurements: patent US20230381350A1 (PRECIRIX N V, published 2023)

Legend:
[1] = biological target: T1, human FAP expressed on cells (human, UniProt Q12884 1-760); assay: saturation binding of 111In-DOTA-labelled untagged VHH B1 on human FAP-expressing GM05389 cells
T1 construct: also called human FAP cell surface protein; human FAP receptor
T1 sequence: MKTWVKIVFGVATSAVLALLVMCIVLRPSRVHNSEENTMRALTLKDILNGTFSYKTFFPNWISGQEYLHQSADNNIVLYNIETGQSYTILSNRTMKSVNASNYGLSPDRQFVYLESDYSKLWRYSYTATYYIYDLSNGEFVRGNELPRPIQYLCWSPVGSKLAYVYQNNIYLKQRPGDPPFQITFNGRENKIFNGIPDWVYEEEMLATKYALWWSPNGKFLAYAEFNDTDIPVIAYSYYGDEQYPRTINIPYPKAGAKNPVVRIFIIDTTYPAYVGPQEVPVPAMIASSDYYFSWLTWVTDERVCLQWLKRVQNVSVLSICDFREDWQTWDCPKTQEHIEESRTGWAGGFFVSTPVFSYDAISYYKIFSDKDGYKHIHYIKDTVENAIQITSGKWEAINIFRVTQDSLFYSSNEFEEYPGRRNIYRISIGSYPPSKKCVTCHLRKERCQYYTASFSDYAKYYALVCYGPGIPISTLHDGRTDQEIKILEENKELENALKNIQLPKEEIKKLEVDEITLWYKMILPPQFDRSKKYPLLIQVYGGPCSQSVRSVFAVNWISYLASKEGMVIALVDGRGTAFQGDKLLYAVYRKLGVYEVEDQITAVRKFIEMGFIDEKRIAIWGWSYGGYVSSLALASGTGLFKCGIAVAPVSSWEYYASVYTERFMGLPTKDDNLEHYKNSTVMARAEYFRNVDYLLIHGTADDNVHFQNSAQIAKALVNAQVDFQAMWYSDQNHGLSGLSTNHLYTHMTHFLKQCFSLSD
Procedure: Secondly, untagged human/murine FAP-crossreactive VHH B1 was radiolabeled with ¹¹¹In, after which its in vitro and in vivo diagnostic potential was evaluated. The binding potential of the resulting radio-conjugate was assessed to confirm that this was not affected by the conjugation of ¹¹¹In-DOTA to the amino acid sequence of the VHH. To this, human FAP-expressing GM05389 cells were incubated with serial dilutions with concentrations ranging from 0 to 33 nM of the ¹¹¹In-labelled VHHs. A 100-fold excess of the corresponding unlabeled VHH was added in parallel to saturate the human FAP receptors expressed on cancer cells, to assess non-specific binding.

[2] = biological target: T1, human FAP expressed on cells; assay: saturation binding of 177Lu-DTPA-labelled untagged VHH B1 on human FAP-expressing GM05389 cells
Procedure: (§1) In a first part, its in vitro behaviour was assessed by means of investigating its cellular binding and retention overtime. The binding potential of the resulting radioconjugates was assessed to confirm that this was not affected by the introduction of ¹⁷⁷Lu-DTPA into the amino acid sequence of the VHH. To this, human FAP-expressing GM05389 and HEK-293 cells were incubated with serial dilutions with concentrations ranging from 0 to 33 nM of ¹⁷⁷Lu-labeled untagged VHH B1. A 100-fold excess of the corresponding unlabeled VHH was added in parallel to saturate the human FAP receptors expressed on cancer cells, to assess non-specific binding.

[3] = biological target: T1, human FAP expressed on cells; assay: saturation binding of 177Lu-DTPA-labelled untagged VHH B1 on human FAP-expressing HEK-293 cells
Procedure: as §1

[4] = biological target: T1, human FAP expressed on cells; assay: saturation binding of 225Ac-DOTA-labelled untagged VHH B1 on human FAP-expressing GM05389 cells
[5] = biological target: T2, murine FAP recombinant protein (murine, UniProt P97321 26-761); assay: bio-layer interferometry (Octet RED96), biotinylated murine FAP on streptavidin sensor
T2 construct: The protein was biotinylated for bio-layer interferometry; also called extracellular domain of murine FAP with N-terminal His6-tag
T2 sequence: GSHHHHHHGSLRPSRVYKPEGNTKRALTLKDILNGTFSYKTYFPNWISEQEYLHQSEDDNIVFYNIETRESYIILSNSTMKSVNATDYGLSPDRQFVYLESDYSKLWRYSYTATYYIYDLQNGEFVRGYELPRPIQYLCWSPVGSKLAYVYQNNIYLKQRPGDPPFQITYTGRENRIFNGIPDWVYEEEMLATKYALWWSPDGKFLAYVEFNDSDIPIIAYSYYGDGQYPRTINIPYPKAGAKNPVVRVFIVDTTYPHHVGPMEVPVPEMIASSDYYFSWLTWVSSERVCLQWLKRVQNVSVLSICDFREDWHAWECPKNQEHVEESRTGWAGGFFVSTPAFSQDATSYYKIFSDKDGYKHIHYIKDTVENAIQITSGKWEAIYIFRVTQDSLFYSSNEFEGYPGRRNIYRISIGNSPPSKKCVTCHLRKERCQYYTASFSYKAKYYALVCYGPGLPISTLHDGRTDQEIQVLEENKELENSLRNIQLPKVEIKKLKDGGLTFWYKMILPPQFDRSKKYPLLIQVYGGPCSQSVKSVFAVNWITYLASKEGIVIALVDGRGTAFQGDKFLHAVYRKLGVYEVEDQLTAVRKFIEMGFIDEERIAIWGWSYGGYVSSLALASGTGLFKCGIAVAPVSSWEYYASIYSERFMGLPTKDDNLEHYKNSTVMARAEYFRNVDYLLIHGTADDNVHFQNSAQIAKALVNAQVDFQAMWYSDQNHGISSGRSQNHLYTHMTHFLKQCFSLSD
Procedure: (§2) The kinetic parameters of antigen binding by purified VHHs were determined via bio-layer interferometry with an Octet RED96 instrument (ForteBio). The assay was performed at 25° C. with shaking at 1000 rpm. Streptavidin coated SA sensors were equilibrated in assay buffer (HBS supplemented with 0.5% BSA, 0.1% Tween), before loading for 5 min with the biotinylated FAP recombinant protein at a concentration of 5 μg/ml. His₆-tagged VHHs were analyzed in a threefold serial dilution from 30 nM to 0.4 nM in assay buffer (except for VHH B3 binding murine FAP recombinant protein, for which a fivefold serial dilution from 1000 nM to 1.6 nM was employed). First the baseline was measured for 180 s in assay buffer, followed by 5 subsequent association phases of 180 s with the VHH preparations in increasing order of concentration, with 75 s intermediate dissociation phases in assay buffer in between, and a final dissociation phase in assay buffer of 30 min. In every assay a reference sensor loaded with FAP recombinant protein was included that was incubated in assay buffer during the association phases.
Binding curves were exported and analyzed using the BIAevaluation analysis software (GE Healthcare). First the y-axes of the different curves were aligned to the median of the last 5 s of the baseline measurement. […]

[6] = biological target: T3, human FAP recombinant protein (human, UniProt Q12884 26-760); assay: bio-layer interferometry (Octet RED96), biotinylated human FAP on streptavidin sensor, kinetic titration, 25 °C
T3 construct: The protein was biotinylated with sulfo-NHS-SS-biotin for bio-layer interferometry; also called extracellular domain of human FAP with N-terminal His6-tag
T3 sequence: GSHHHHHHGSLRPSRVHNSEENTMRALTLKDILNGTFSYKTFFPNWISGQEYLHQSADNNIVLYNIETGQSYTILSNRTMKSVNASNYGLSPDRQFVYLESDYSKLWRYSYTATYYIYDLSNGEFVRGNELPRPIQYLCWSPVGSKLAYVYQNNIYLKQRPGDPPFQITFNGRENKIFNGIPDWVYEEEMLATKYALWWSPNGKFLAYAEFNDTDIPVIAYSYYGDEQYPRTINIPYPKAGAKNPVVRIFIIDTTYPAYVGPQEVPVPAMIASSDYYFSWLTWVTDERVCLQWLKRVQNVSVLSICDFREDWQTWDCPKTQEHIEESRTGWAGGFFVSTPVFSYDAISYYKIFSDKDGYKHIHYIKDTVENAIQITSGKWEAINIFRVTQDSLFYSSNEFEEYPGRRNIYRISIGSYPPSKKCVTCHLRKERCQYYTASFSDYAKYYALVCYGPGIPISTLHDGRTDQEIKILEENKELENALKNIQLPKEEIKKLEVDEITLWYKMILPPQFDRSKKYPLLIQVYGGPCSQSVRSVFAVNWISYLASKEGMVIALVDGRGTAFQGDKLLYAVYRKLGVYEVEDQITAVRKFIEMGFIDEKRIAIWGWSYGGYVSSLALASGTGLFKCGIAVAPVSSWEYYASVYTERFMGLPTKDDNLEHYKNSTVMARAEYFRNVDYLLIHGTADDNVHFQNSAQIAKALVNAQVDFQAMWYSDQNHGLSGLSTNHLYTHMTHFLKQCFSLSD
Procedure: as §2
Binding curves were exported and analyzed using the BIAevaluation analysis software (GE Healthcare). First the y-axes of the different curves were aligned to the median of the last 5 s of the baseline measurement. Subsequently, the sensorgram of the reference sensor was subtracted from all other sensorgrams. The resulting binding curve was fitted using a general fit with the ‘kinetic titration with drift’ binding model (1:1 (antigen:analyte) model; Karlsson, R. et al (2006), Analyzing a kinetic titration series using affinity biosensors. Analytical Biochemistry 349: 136-147), with Rmax fitted global, RI local and drift set to 0.
Table 7 gives an overview of the kinetic parameters of antigen binding for His₆-tagged VHHs B1, B2, B3 and B4 (SEQ ID NO: 21-24), as determined by bio-layer interferometry with biotinylated human or murine FAP recombinant protein that was loaded on the sensor.

[7] = biological target: T2, murine FAP recombinant protein; assay: ELISA, coated murine FAP recombinant protein, HA-His6-tagged VHH extract, anti-HA detection
Procedure: The day before measurement, 0.1 μg recombinant protein at a concentration of 1 μg/mL in 100 mM NaHCO₃, pH 8.2 was coated in a 96-well ELISA plate (Nunc MaxiSorp). Per VHH clone also a blank coated well was foreseen (only buffer). The wells were overcoated with protein-free T20 (PBS) blocking buffer (Pierce). After washing with PBS, pH7.4, 0.05% Tween, VHH-containing bacterial freeze-thaw extract was added to every well. Binding of HA-His₆-tagged VHHs was detected by using mouse anti-HA.11 epitope tag (clone 16B12, Biolegend) as the primary Ab and goat anti-mouse IgG (whole molecule) alkaline phosphatase conjugate (Sigma-Aldrich) as the secondary Ab, with thorough washing with PBS, pH 7.4, 0.05% Tween in between. Signals were developed using phosphatase substrate (Sigma-Aldrich) in AP blot buffer (100 mM NaCl, 50 mM MgCl₂, 100 mM Tris, pH 9.5). The absorbance was determined at 405 nm using an absorbance microplate reader (Molecular Devices). Per clone the ratio was determined between the absorbance in the antigen-coated well versus the well without antigen.

[8] = biological target: T3, human FAP recombinant protein; assay: ELISA on coated recombinant protein, VHH-containing bacterial extract, anti-HA detection, signal-to-background ratio
How it was run: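 Recombinant protein coated overnight (0.1 μg, 1 μg/mL in NaHCO₃ pH 8.2), blocked, then probed with VHH-containing bacterial freeze-thaw extract. HA-tagged VHH detected via anti-HA and AP-conjugated secondary antibody, absorbance at 405 nm; value is ratio of antigen-coated to uncoated-well signal per clone.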

[9] = biological target: T1, human FAP expressed on cells; assay: flow cytometry on human FAP-expressing GM05389 cells, VHH-containing bacterial extract, anti-HA and PE-conjugated secondary detection, Δmfi against cells without VHH
Procedure: The cell binding was tested by flow cytometry experiments. Per test condition 1×10⁵ to 2×10⁵ cells, washed in PBS, 0.5% BSA, were pelleted in the well of a 96-well U-bottom plate. The cell pellets were resuspended and incubated with the VHH-containing bacterial freeze-thaw extracts (diluted in PBS, 0.5% BSA). Binding of HA-His₆-tagged VHHs was detected by using mouse anti-HA.11 epitope tag (clone 16B12, Biolegend) as the primary detection antibody and PE-conjugated rat anti-mouse IgG1 (clone A85-1, BD Pharmingen) as the secondary detection antibody, with washing with PBS, 0.5% BSA in between, and finally resuspended in PBS, 0.5% BSA.
Flow cytometry was performed on a FACS Canto II (BD Biosciences). Data were analyzed using FlowJo software. Based on the forward scatter-side scatter plot a single cell gate was drawn. The median fluorescence intensity was determined on a histogram for the phycoerythrin signal of the single cells. The difference in median fluorescence intensity (A mfi) was calculated relative to a test condition without incubation of VHHs (cells+primary Ab+secondary Ab), and are shown in FIG. 3.

B1: 111In-labeled untagged VHH B1 (VHH)
VHH: DVQLVESGGGLVQPGGSLRLSCVASGRLSSSNSMAWYRQVPGKRRELVAGITGGGETNYADFVGGRFTISRDNAKNGLYLQLNGLKPEDTAAYYCNFWPPLINYWGQGTQVTVSS
modifications: 111In-DOTA (p-SCN-Bn-DOTA) conjugated to lysine side-chain amines
[1]
  EC50: 0.6 nM

B2: 177Lu-labeled untagged VHH B1 (VHH)
VHH: DVQLVESGGGLVQPGGSLRLSCVASGRLSSSNSMAWYRQVPGKRRELVAGITGGGETNYADFVGGRFTISRDNAKNGLYLQLNGLKPEDTAAYYCNFWPPLINYWGQGTQVTVSS
modifications: 177Lu-DTPA (p-SCN-Bn-CHX-A''-DTPA) conjugated to lysine side-chain amines
notes: also called 177Lu-B1; 177Lu-DTPA-VHH
[2]
  EC50: 0.5 nM
[3]
  EC50: 0.8 nM

B3: 225Ac-labeled untagged VHH B1 (VHH)
VHH: DVQLVESGGGLVQPGGSLRLSCVASGRLSSSNSMAWYRQVPGKRRELVAGITGGGETNYADFVGGRFTISRDNAKNGLYLQLNGLKPEDTAAYYCNFWPPLINYWGQGTQVTVSS
modifications: 225Ac-DOTA (p-SCN-Bn-DOTA) conjugated to lysine side-chain amines
notes: also called 225Ac-DOTA-VHH
[4]
  EC50: 0.4 nM

B4: His6-tagged VHH B3 (VHH)
VHH: DVQLVESGGGLVQAGGSLRLSCAVSGRLFSTNAMGWYRQAPGKQRELVAGITGGDRSNYADSVKGRFTISRDNGKNTLYLQMNSLKPEDTAVYYCNFYPPIVGDYWGQGTQVTVSS
notes: Purified, unlabelled; used in bio-layer interferometry; also called B3 with His6-tag
[5]
  binding result: no binding
[6]
  Kd: 0.16 nM
  koff: 5.4e-05 s⁻¹
  kon: 340000 M⁻¹ s⁻¹

B5: HA-His6-tagged VHH B4 (VHH)
VHH: QVQLQESGGGLVQVGGSLRLSCVASGFTFSSYYMSWVRQAPGKGLEWVASIYADGDMTYYADSVRGRFTISRDNAKNTLYLQMNSLKSEDTAVYYCAKDPLPPYHVNQGTQVTVSS
notes: also called B4 with HA-His6-tag
[7]
  signal-to-background ratio: > 30
[8]
  binding result: no binding
[9]
  binding result: no binding
